Assay results taken from the supplement of paper PMC9170038.

Tested on: MS2 coat protein
Test: apparent KD of MS2 coat protein; designed switch direction (-1 OFF switch, 1 ON switch): -1; higher = weaker reporter binding
Method in brief: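 Designed RNA switches with common flanks were made on Illumina chips by stalled E. coli RNA polymerase. Titration with SNAP-549-labelled MS2 coat protein doubled from 0.7 or 1.5 nM up to 3 µM. Apparent KD is each design's median over clusters after curve-fitting normalised fluorescence.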

[1] = Eterna round: R95, input ligand: FMN 200 uM
[2] = Eterna round: R95, input ligand: microRNA oligo, concentration not stated
[3] = Eterna round: R95, input ligand: none
[4] = input ligand: microRNA oligo, concentration not stated

| Sequence | apparent KD of MS2 coat protein [1] [nM] | apparent KD of MS2 coat protein [2] [nM] | apparent KD of MS2 coat protein [3] [nM] | apparent KD of MS2 coat protein [4] [nM] | apparent KD of MS2 coat protein (input ligand: FMN 200 uM) [nM] | apparent KD of MS2 coat protein (input ligand: none) [nM] |
| --- | --- | --- | --- | --- | --- | --- |
| AAAAAACAAGGAUAUACGGAUGAAGAGAGUCUUAAUUUUUGACAUGAGGAUCACCCAUGUAGAAGGUGUUAAAA [JR_Exclusion2_Sub017] (puzzle: Exclusion 2) | 58.9 | 44.4 | 50.5 |  |  |  |
| AAAAAACAUGAGGAUCACCCAUGUCAGGAUAUCCGAAAAGAAAAAUAAAAAGAAAAAGGGAGAAGGGACAAAAA [April's ex-date #3] (puzzle: Exclusion 1) | 45.6 | 48.6 | 61.3 |  |  |  |
| AAAAAGAUAGGAUAUACAAUAAAAUAAAAUAAAAUAAAUACACAUGAGGAUCACCCAUGUAGAAGGAUCGAAAA [Exclusion 2 #1] (puzzle: Exclusion 2) | 26.6 | 25 | 31.2 |  |  |  |
| AAAAAGGCAGGAUAUACAUGAGGAUCACCCAUGUGAAAAAACAAAAAAAAAAAAAAAGGUAGAAGGGCCGAAAA [Science Triplets #3] (puzzle: Exclusion 3) | 22.1 | 29 | 27.6 |  |  |  |
| AAAAAGUCAGGAUAUGCGAAGGCGUCUGAUAGACGAGGCUAGCAGAAGGGACAUGAGGAUCACCCAUGUAAAGA [Mat - Exclusion 4 - D82] (Eterna round: R96, puzzle: Exclusion 4) |  |  |  | 19.4 |  |  |
| AAAAAGUCAGGAUAUGUAGCAAAAGGUGAUCAAAAAAAGCUACAGAAGGGACAUGAGGAUCACCCAUGUAAAAA [Ex4: 937] (Eterna round: R96, puzzle: Exclusion 4) |  |  |  | 162 | 284 | 183 |
| AAAACAAACUUUUUGCUCGUCUUAUAUGACGCUCGAGUCACAUGAGGAUCACCCAUGUCUUCCUGUUUGAUAGUUGA [JR_SV3TOV2_Sub055] (puzzle: Sensor v3, turn-off variant 2) | 113 | 113 | 142 |  |  |  |
| AAAACGUGAGGAUAUCCAAUAUAUGACAUGAGGAUCACCCAUGUUUCCACUCGUACCUCCGGAGAAGGCACAAUAA [Ex5 #76] (Eterna round: R97, puzzle: Exclusion 5) |  |  |  |  | 37.6 | 56.2 |
| AAAAGCCUAGGAUAUACUUGAGGAUCACCCAAGUAGGGUCCCAUGGACCCGUCCUCGUGUAGAAGGAGGAAAAG [Dierlabe] (Eterna round: R97, puzzle: Exclusion 3) |  |  |  |  | 156 | 60.5 |
| AAAAGCGUCACAGGAUAUUCAGGCGACGCCAAAGAAGAAGGGUGAGGCACAAACAUGAGGAUCACCCAUGUGGUCCUCUCCCGA [Vebiquti] (Eterna round: R96, puzzle: Exclusion NG 1) |  |  |  | 11 | 19.2 | 15.6 |
| AAAAGGCAGGGAGGAUAUGCUUACCUGGGUCGUCUUCAGACAUGAGGAUCACCCAUGUAGUCGACGCAGAAGGCCCUCAAAGCC [Mat - Exclusion NG 2 - Mod of JL - D60] (Eterna round: R96, puzzle: Exclusion NG 2) |  |  |  | 38.9 | 82.6 | 54.1 |
| AAAAGGCAGGGAGGAUAUGCUUGCCUGGGUCGUCUUCAAACAUGAGGAUCACCCAUGUAGUCGACGCAGAAGGCCCUCAAAGCC [Mat - Exclusion NG 2 - Mod of JL - D61] (Eterna round: R96, puzzle: Exclusion NG 2) |  |  |  | 12.1 | 65.2 | 16.5 |
| AAAAGGUCAGGAUAUCGACGCGGUUGGGAGGCAGGUCCGCGCGAGAAGGGACAUGAGGAUCACCCAUGUUAAAA [Excls4-IV] (puzzle: Exclusion 4) | 33.5 | 22.8 | 26.4 |  |  |  |
| AAAAGGUGAGGAUAUCCGACGUUGCACUUGAGGAUCACCCAAGUUCCUCGCGUGCUUUUAGGAGAAGGCACAAAAC [Tegezaza] (Eterna round: R97, puzzle: Exclusion 5) |  |  |  |  | 77.3 | 982 |
| AAAAUAAAGGCAGGAUAUCGGAGGCGCUGGCACCGAGAAGGGCCAGGGUGUCGUCAAAACAUGAGGAUCACCCAUGUGAGUGAC [Maanated] (Eterna round: R96, puzzle: Exclusion NG 1) |  |  |  | 12.7 | 17.6 | 23 |
| AAAAUGUGAGGAUAUCCAAUAUAUGACAUGAGGAUCACCCAUGUUUCCACUCGUACCUCCGGAGAAGGCACUAAAA [Ex5 #42] (Eterna round: R97, puzzle: Exclusion 5) |  |  |  |  | 21.9 | 29 |
| AAACAAGCAACGAGAUCCCACAUGAGGAUCACCCAUGUCAACUGGAGUUUUAAAUCUUUAGGCUCGUUUUAUAACAA [S_tov1_V1.2] (Eterna round: R97, puzzle: Sensor, turn-off variant 1) |  |  |  |  | 50.4 | 56.8 |
| AAACCCUGAGGAUAUACAUAACAACAAAUCCUCACGUGCCAACAUGAGGAUCACCCAUGUAGAAGGCAGGCCAA [Mod R3 Insanara 5 - Jieux - Exclusion 2] (Eterna round: R97, puzzle: Exclusion 2) |  |  |  |  | 49.2 | 15.8 |
| AAACCCUGAGGAUAUGCAUAACAACAAAGCCUCACGUGCCAACAUGAGGAUCACCCAUGUAGAAGGCAGGCCAA [Mod R3 Insanara 15 - Jieux - Exclusion 2] (Eterna round: R97, puzzle: Exclusion 2) |  |  |  |  | 20.7 | 15.3 |
| AAACUACUUGGGCUGACACAUGAGGAUCACCCAUGUGGAGGGCAGGAUAUGCCCAUAAAAUUGGCGCAGAAGGGCCCACGUAGA [Tegesousbe] (Eterna round: R96, puzzle: Exclusion NG 3) |  |  |  | 6.89 | 17.1 | 13.9 |
| AAACUCUAAGUCAGGAUAUGGCAACGCUAAGGCGACCAGAAGGGACUUGAGGAUCACCCAAGUACCGCUUGUGG [Orardi] (Eterna round: R97, puzzle: Brourd's mod of Exclusion 4) |  |  |  |  | 409 | 42.7 |
| AAACUGUGAGGAUAUGGUGAGUAGUGCCUGAGCGCUGCUCACCAGAAGGCACAUGAGGAUCACCCAUGUAUAAC [Mat - Exclusion 4 - Mod of JL - D5] (puzzle: Exclusion 4) |  | 22.4 |  |  |  |  |
| AAAGUGCUGCGAGGAUAUACAUGAGGAUCACCCAUGUGGAUGUCUGAGGCAAAGCCUCAGACAAUGUAGAAGGCGCAGUACUAA [Mat - Exclusion NG 2 - Mod of JL - D56] (Eterna round: R96, puzzle: Exclusion NG 2) |  |  |  | 18.2 | 87.3 | 27 |
| AAAGUGUGAGGAUAUCCGGGACUGGGCCGGGAGGUUCGGAAGGAGAAGGCACAUGAGGAUCACCCAUGUAACGG [Excls4-X] (puzzle: Exclusion 4) |  | 46.9 |  |  |  |  |
| AAAUACGCUGAGGAUAUGCGGCGCACAAAAUAAGCAGAAGGCAGCACUUGAGGAUCACCCAAGUGGCCCGAGAA [Enusrees] (Eterna round: R97, puzzle: Exclusion 6) |  |  |  |  | 15.5 | 8 |
| AAAUAUCAUGUAGGAUAUGGUAGGCGAACCUUACCAGAAGGACAUGAGGAUCACCCAUGUGCUGAGUUGUCCGUAGACAGCUCU [Ex NG1 #4] (Eterna round: R96, puzzle: Exclusion NG 1) |  |  |  | 63.7 | 74.1 | 78.7 |
| AAAUGCAAGCAAAGAUCUUACAUGAGGAUCACCCAUGUGCUCGUCUUAUAAAGUACUAUCACGAAAGUGAUAGUACA [Sensor 3, v1 - 28] (puzzle: Sensor v3, turn-off variant 1) | 25.9 | 90.9 | 18.1 |  |  |  |
| AAAUGGGCGUAGGAUAUGAGAUGGUCUAGCAGCUCAGAAGGACGCACAUGAGGAUCACCCAUGUGAUCGGACUA [Celebidi] (Eterna round: R96, puzzle: Exclusion 6) |  |  |  | 27.8 | 281 | 34.8 |
| AAAUGGGCGUAGGAUAUGAGAUGGUCUAGCAGCUCAGAAGGACGCACAUGAGGAUCACCCAUGUGAUCGGACUA [Celebidi] (puzzle: Exclusion 6) |  | 29.7 |  |  |  |  |
| AAAUUACAAGCAAGAUCCUACAUGAGGAUCACCCAUGUGCUCGUCUUAUAAAGUACUAUCACGAAAGUGAUAGUACA [Mat - Sensor v3 - turn-off var 1 - Eli Mod - D58] (puzzle: Sensor v3, turn-off variant 1) | 256 | 304 | 329 |  |  |  |
